From patent US20030054411A1, “GPR motifs and uses thereof” (priority 2001, published 2003)

B1: AGS3: Activator of G-protein Signalling 3; bioactive 74 amino acid fragment isolated in yeast screen, tested as GST fusion (protein)
chain: MLIKYQSSRIDDQRCPPPDVLPRGPTMPDEDFFSLIQRVQAKRMDEQRVDLAGSPDQEASGLPDPRQQCPPGAS
modifications: left off: a dimerising Fc or GST

Key:
[1] = system: pheromone response pathway; test: Yeast expression cloning system, growth assay; format: cell-based, Saccharomyces cerevisiae; conditions: for activity in the presence of Giα2 G204A mutant or RGS4: G204A Giα2 strain or RGS4 overexpression; for growth in yeast expression cloning system: Giα2 yeast strain, selective medium; for function in null Ste5 genetic background: yeast strain lacking Ste5
Source text: (A) Three cDNA clones (#34, #37 and #53) were isolated from a screen of 1.1×10^6 yeast transformants based upon their ability to promote growth in a galactose-dependent manner in the yeast expression cloning system (5). B) Analysis of the cDNA clones in spot growth assays using yeast strains lacking STE20, STE5 or STE4. Control (Non-induced/no selection)—glucose media lacking uracil and tryptophan (UT). Non-induced/selection—glucose media lacking uracil/tryptophan/histidine (UTH) and containing the histidine analog aminotriazole (AT) at 1 mM. Induced/selection—galactose media lacking UTH and containing 1 mM AT. WT—wild type strain CY1316/1183. cDNA #34 was active in the absence of a functional STE5 and thus was not evaluated (black circles in key) in yeast strains lacking STE4 or STE20. For spot growth assays, ˜2,000 cells suspended in water were spotted on appropriate medium and the plates were incubated at 30° for 2 days prior to photography. Experiments in (A, B) were repeated three times with similar results.
(A) Bioactivity of cDNA #37 and 53 in yeast strains expressing different Gα subunits. The Gpa1, Giα2Gpa1(1-41), Giα3Gpa1(1-41) and Gα16Gpa1(1-41) yeast strains expressed similar amounts of G-protein as determined by immunoblotting with Gpa1-specific antisera. Each series of experiments include data obtained in the absence of Gα to indicate the signal obtained when the action of Gβγ is not limited by reformation of heterotrimer. Data are presented as the mean±S.E.M of three experiments with duplicate determinations. (B) Interaction of AGS2 and AGS3 with G-proteins. AGS2 and the bioactive AGS3 peptide (74 amino acids) beginning at the first in frame methionine were generated as GST-fusion proteins in bacteria and purified using a glutathione affinity matrix. AGS2 and AGS3 GST fusion proteins were incubated with G-protein subunits (Gα=60-80 nM, Gβγ=40 nM, fusion protein=˜300 nM, total volume=250 ul) for 12 hrs at 4° C. GDP=10 uM. GTPγS=10 uM plus 5 mM MgCl2. Proteins were then adsorbed to glutathione matrix and retained G-protein subunits identified by immunoblotting following gel electrophoresis. Giα2 was generated in Sf9 cells as an amino terminal his6-tagged protein and was detected on membrane transfers using anti-Xpress antisera (Invitrogen). Bovine brain Gβγ was detected on membrane transfers with Gβ antisera. Input refers to 20 ul of the incubation mixture. The results presented are representative of four separate experiments. […] C) Effect of G204A Giα2 substitution and RGS4 on the functionality of AGS proteins. The G204A Giα2 yeast strain and the system used for over expression of RGS4 are described in detail in reference 5. Protein expression was confirmed by immunoblotting. AGS 1 was discovered in a similar screen using a human liver cDNA library (5, 7). WT—wild type strain CY1316/1183 containing Giα2 as described for the original yeast screen. RGS4 was overexpressed in the CY1316/1183 yeast strain. Similar results were obtained in three experiments.
Generation and screening of cDNA libraries. The NG108-15 cell line was propagated as previously described (4). mRNA was prepared from twenty 100 mm confluent plates of cells and used to generate a cDNA library in the yeast expression vector pYES2. The library was constructed by standard procedures using reagents from Stratagene. Analysis of individual transformants indicated cDNA inserts ranging from 400 to 3000 nt with ˜70-80% of the transformants containing cDNA inserts. The primary transformants were then amplified by solid phase agarose growth for 48 hr and plasmid DNA isolated by column fractionation (Qiagen). The NG108-15 cDNA library was then screened for activators of the pheromone response pathway as described (5). We used a his3 far1 yeast strain containing a genomic integration of the FUS1p-HIS3 reporter construct and lacking both the native pheromone response receptor Ste3 and Gpa1 Gα subunit. […]

Giα2 = target: T1, Giα2 (Homo sapiens, UniProt P04899); test: GTPγS binding assay, Giα2; format: biochemical; conditions: AGS proteins
T1 construct: made in house; host or cells: Sf9 insect cells
Method: A and B, the carboxyl region of AGS3 (Pro^463-Ser^650) containing all four GPR repeats was generated as a His-tagged (A) or GST fusion (B) protein for protein interaction assays as described under Examples. All interactions were done in the presence of 10 μM GDP, and the input lanes represent one-tenth of the G-protein used in each interaction assay. A, Giα1 (75 nM) was incubated with 300 nM His-tagged AGS3-GPR in the absence and presence of increasing amounts of the GPR peptide, after which bound Giα was isolated on a nickel affinity matrix, and samples were processed for immunoblotting with Giα antisera. The blot in the upper panel of A was stripped and reprobed with AGS3 antisera to provide internal controls for protein loading. B, Giα2 (75 nM) was incubated with 300 nM AGS3-GPR or GST in the presence and absence of 100 μM GPR consensus peptide, GPR peptide Q15A, or GPR peptide R23F. The immunoblots presented in A and B are representative of three experiments. C and D, GTPγ^35S binding to G-proteins (100 nM) was measured in the absence and presence of peptides as described in the Examples. Data are expressed as the percent of specific binding (˜5 pmol) observed in the absence of peptide and represent the means±S.E. derived from three experiments. The concentration of peptides in D is 10 μM.
GTPγS Binding Assays—GTPγS binding assays were generally conducted as described (39). G-proteins (100 nM) were preincubated for 20 min at 24° C. in the presence and absence of GPR peptides. Binding assays (duplicate determinations) were initiated by addition of 0.5 μM GTPγS (4.0×10^4 dpm/pmol), and incubations (total volume=50 μl) were continued for 30 min at 24° C. Both preincubations and GTPγS binding assays were conducted in binding buffer containing 2 mM MgCl2. Reactions were terminated by rapid filtration through nitrocellulose filters with 4×4-ml washes of stop buffer (50 mM Tris-HCl, 5 mM MgCl2, 1 mM EDTA, pH 7.4, at 4° C.). Radioactivity bound to the filters was determined by liquid scintillation counting. Nonspecific binding was defined by 100 μM […].

T1 sequence (P04899 whole entry): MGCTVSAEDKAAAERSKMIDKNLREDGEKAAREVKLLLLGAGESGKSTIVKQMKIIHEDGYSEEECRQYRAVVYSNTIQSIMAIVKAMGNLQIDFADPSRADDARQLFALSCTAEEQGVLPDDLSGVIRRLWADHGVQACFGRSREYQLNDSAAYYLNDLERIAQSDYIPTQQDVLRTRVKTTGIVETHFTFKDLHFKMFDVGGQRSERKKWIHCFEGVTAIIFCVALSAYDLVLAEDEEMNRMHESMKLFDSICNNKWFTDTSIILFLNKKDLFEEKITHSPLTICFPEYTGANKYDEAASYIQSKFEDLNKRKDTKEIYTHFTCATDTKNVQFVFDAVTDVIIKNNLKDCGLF

Row | Molecule | activity in the presence of Giα2 G204A mutant or RGS4 [1] | growth in yeast expression cloning system [1] | function in null Ste5 genetic background [1] | activity in yeast strains lacking Ste20 or Ste4 [1] | effect on GTPγ35S binding to Giα2 (Giα2)
1 | AGS2: Activator of G-protein Signalling 2, protein identical to mouse Tctex1, isolated from NG108-15 cDNA library | still active | promoted growth in a galactose-dependent manner | did not function | inactive | did not alter
2 | B1 | still active | promoted growth in a galactose-dependent manner | did not function | inactive | did not alter
